# Values quoted from earlier work as cited in paper PMC10955226.
# Target: WWC1 WW tandem (Homo sapiens) (UniProt Q8IX03)
# Chain of UniProt Q8IX03 (Q8IX03 6-86): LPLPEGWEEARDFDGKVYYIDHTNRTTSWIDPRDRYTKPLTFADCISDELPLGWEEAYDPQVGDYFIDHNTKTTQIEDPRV
substance,measurement,value
JCAD PPxY motifs (from UniProt Q9P266),Kd,58 nM
